Substitutions are numbered along the chain they refer to.
Tests used:
[1] = tested on: HuH-7 cells, Hep-G2 cells or 786-0 cells; test: Uptake of Dil-labelled human low-density lipoprotein by cells (flow cytometry); type: cell-based; settings: 10 μM peptide, 5 μg/mL LDL-Dil, 3 hours, versus solvent (DMSO)
Experimental: 1) HuH-7 cells (Cat. No.: TCHu182. Cell Bank of Type Culture Collection Committee of Chinese Academy of Sciences/Cell Resource Center of Shanghai Institutes for Life Sciences. Chinese Academy of Sciences) and Hep-G2 cells (Cat. No.: HB-8065. ATCC. USA) or 786-0 cells (Cat. No.: Cell Bank TCHul86. Cell Bank of Type Culture Collection Committee of Chinese Academy of Sciences/Cell Resource Center of Shanghai Institutes for Life Sciences, Chinese Academy of Sciences) were cultured with DMEM medium in a 10 cm cell culture dish.
2) Low-density lipoprotein from human plasma and Dil complex (Cat. No. L3482. Invitrogen) were added at a final concentration of 5 μg/mL to the above cells, and at the same time. 10 μM HILPDA P01, truncated sequence P03 of HILPDA or corresponding volume of solvent (DMSO) was added to the cell culture medium.
3) After culturing for 3 hours, the cells were washed twice with PBS, and the flow cytometry experiment was performed, and the Dil signal intensity of the cells was detected on the PE channel (as shown in FIGS. 8A to 8D).

ES-2 cells = test: APOE3-3xHA uptake by recipient ES-2 cells with synthesized HILPDA peptides (immunofluorescence); type: cell-based; settings: 10 μM peptide, 24 hours, versus solvent (DMSO)
Experimental: (§1) 1) HEK293T cells were cultured with DMEM medium in a 10 cm cell culture dish.
2) A plasmid of APOE3-3xHA gene was expressed in the above cells.
(§2) 3) After 12 hours, the old medium in 1) was replaced with fresh DMEM cell culture medium.
4) After further culturing for 48 hours, the media of the cells cultured in 3) were collected. respectively, and these media were used to directly culture the recipient ES-2 cells (Cat. No.: TCHu111. Cell Bank of Typical Culture Collection Committee of Chinese Academy of Sciences/Cell Resource Center of Shanghai Institutes for Life Sciences. Chinese Academy of Sciences) that had been pre-digested with 0.25% EDTA trypsin, and at the same time, 10 μM truncated sequence HILPDA P01, HILPDA P03 or the corresponding volume of solvent (DMSO) was added to the cell culture media.
5) After culturing for 24 hours, anti-HA antibody (Cat. No.: ab9110, abcam: a fusion protein for detecting APOE3-3xHA gene expression) was used to carry out immunofluorescent staining experiments.

SD rats [2] = test: APOE content in rat cerebrospinal fluid after lateral ventricle injection (ELISA); type: in vivo; settings: 0.8 mg/kg lateral ventricle, 4 hours after injection, versus solvent
Experimental: 1) SD rats (8-10 weeks, male, Shanghai Family Planning Institute) were injected through lateral ventricle with the truncated sequence P04 of HILPDA at a dose of 0.8 mg/kg rat body weight or with the same amount of solvent (50% DMSO+50% 0.9% NaCl) in total of 20 μL:
2) After 4 hours of injection, the cerebrospinal fluid of the rat was collected:
3) ELISA kit (Cat. No.: E-EL-R1230c, ELabScience) was used to detect the apolipoprotein APOE content in the cerebrospinal fluid.

mouse brain slices = test: APOE3 uptake by mouse brain slices from conditioned medium (immunofluorescence); type: cell-based; settings: conditioned HEK293T medium, 48 hours, versus GFP-Flag + APOE3-3xHA
Experimental: as §1
(§3) 2) The above cells were separately co-transfected with:
plasmid expressing GFP-FLAG and APOE3-3xHA plasmid, and
plasmid expressing HILPDA-Flag and APOE3-3xHA plasmid,
as §2
4) After further culturing for 48 hours, the media of the cultured cells in 3) were collected, respectively, and these media were used to directly culture mouse brain slices, wherein the brain slices were obtained by slicing fresh mouse brains to reach a thickness of 150 μm by a vibrating microtome. The slices were cultured in DMEM medium.
5) After culturing for 48 hours, immunofluorescent staining experiments were carried out with anti-HA antibody (Cat. No.: ab9110, abcam: for detecting APOE3-3xHA fusion protein).

[3] = tested on: recipient cells (786-O, 769-P, HuH7, ES-2); test: APOE uptake by recipient cells from conditioned medium of HEK293T cells co-expressing HILPDA-Flag and APOE-3xHA (immunofluorescence); type: cell-based; settings: 24 hours
Experimental: as §1, §3
GFP-Flag expressing plasmid and APOE2-3xHA plasmid,
GFP-Flag expressing plasmid and APOE3-3xHA plasmid,
GFP-Flag expressing plasmid and APOE4-3xHA plasmid,
HILPDA-Flag expressing plasmid and APOE2-3xHA plasmid,
HILPDA-Flag expressing plasmid and APOE3-3xHA plasmid, and
HILPDA-Flag expressing plasmid and APOE4-3xHA plasmid.
as §2
4) After further culturing for 48 hours, the media of the cultured cells in 3) were collected, respectively, and these media were used to directly culture the recipient cells, such as 786-O (Cat. No.: Cell Bank TCHu186, Cell Bank of Type Culture Collection Committee of Chinese Academy of Sciences/Cell Resource Center of Shanghai Institutes for Life Sciences, Chinese Academy of Sciences), 769-P (Cat. No.: Cell Bank TCHu215, Cell Bank of Type Culture Collection Committee of Chinese Academy of Sciences/Cell Resource Center of Shanghai Institutes for Life Sciences, Chinese Academy of Sciences), HuH7 (Cat. No.: TCHu182, Cell Bank of Type Culture Collection Committee of Chinese Academy of Sciences/Cell Resource Center of Shanghai Institutes for Life Sciences, Chinese Academy of Sciences), ES-2 (Cat. No.: TCHu111, Cell Bank of Type Culture Collection Committee of Chinese Academy of Sciences/Cell Resource Center of Shanghai Institutes for Life Sciences, Chinese Academy of Sciences) wild-type cells, that had been pre-digested with trypsin containing 0.25% EDTA.
5) After culturing for 24 hours, anti-Flag (Cat. No.: F1804, sigma: for detecting GFP-Flag or HILPDA-Flag fusion protein) and anti-HA antibody (Cat. No.: ab9110, abcam: for detecting fusion proteins expressed by three different alleles of APOE2-3xHA, APOE3-3xHA or APOE4-3xHA) were used to perform immunofluorescent staining experiments.

[4] = tested on: neuronal cells obtained by induction and differentiation of human embryonic stem cells; test: APOE uptake by recipient neuronal cells from conditioned medium (western blotting); type: cell-based; settings: conditioned HEK293T medium, 24 hours
Experimental: as §1
2) The above cells separately were: transfected to express APOE2-3xHA plasmid, transfected to express APOE3-3xHA plasmid, transfected to express APOE4-3xHA plasmid, co-transfected with plasmid expressing HILPDA-Flag and APOE2-3xHA plasmid, co-transfected with plasmid expressing HILPDA-Flag and APOE3-3xHA plasmid, and co-transfected with plasmid expressing HILPDA-Flag and APOE4-3xHA plasmid.
as §2
4) After further culturing for 48 hours, the media of the cultured cells in 3) were collected, respectively, and these media were used to directly culture recipient neuronal cells, wherein the neuronal cells were obtained by induction and differentiation of human embryonic stem cells (WA09-H9 Wincell Research Institute) through STEMdiff Neural (STEMCELL Technologits) differentiation system.
5) After culturing for 24 hours, anti-Actin (Cat. No.: Proteintech, 66009-1-Ig) and anti-HA antibody (Cat. No.: ab9110, abcam: used to detect three fusion proteins expressed by different alleles APOE2-3xHA, APOE3-3xHA or APOE4-3xHA) were used to perform western blotting.

SD rats [5] = test: Low-density lipoprotein cholesterol level in rat plasma after tail vein injection; type: in vivo; settings: 1.5 mg/kg tail vein, 5 hours after injection, versus solvent
Experimental: 1) SD rats (8-10 weeks old, female, Shanghai Family Planning Institute) were injected through tail vein with HILPDA P02 at a dose of 1.5 mg/kg rat body weight or the same amount of solvent (50% DMSO+50% 0.9% NaCl) in total of 100 μL:
2) After 5 hours of injection, about 1 mL of blood was collected from the tail vein, and the collected blood was placed in an EDTA-K2 anticoagulant tube and underwent ice-bath for 1 hour, then centrifuged at 2000*g at 4° C., for 10 minutes, and the supernatant plasma was collected:
3) A biochemical analyzer (Mindray 240) was used to analyze the low-density lipoprotein cholesterol content in the plasma (as shown in FIG. 10).

## HILPDA P03: synthesized truncated human HILPDA, SEQ ID NO: 13 (MKHVLNLYLLGVVLTLLSIF) (truncated fragment of human HILPDA)
[1]
  uptake of human low-density lipoprotein particles (Dil signal intensity): Promote the Uptake
ES-2 cells
  APOE3-3xHA uptake by recipient cells (anti-HA fluorescent signal): Promote the Clearance

## HILPDA P04: synthesized truncated rat HILPDA, SEQ ID NO: 14 (MKYMLNLYVLGVMLTLLSIF) (truncated fragment of rat HILPDA)
SD rats [2]
  content of apolipoprotein APOE in the cerebrospinal fluid: significantly decreased

B1: HILPDA-Flag: human HILPDA protein fused with FLAG tag, expressed in HEK293T cells and secreted into culture medium (protein, UniProt Q9Y5L2 1-63, looked up)
Hypoxia-inducible lipid …: MKHVLNLYLLGVVLTLLSIFVRVMESLEGLLESPSPGTSWTTRSQLANTEPTKGLPDHPSRSM
modifications: FLAG tag
notes: human HILPDA protein fused with FLAG tag, expressed in HEK293T cells and secreted into culture medium
Mouse brain slices
  APOE3-3xHA uptake by brain slices (anti-HA fluorescent signal): more and stronger fluorescent signals
[3]; versus GFP-Flag + APOE2-3xHA
  APOE2-3xHA uptake by recipient cells (anti-HA fluorescent signal): more and stronger fluorescent signals
[3]; versus GFP-Flag + APOE3-3xHA
  APOE3-3xHA uptake by recipient cells (anti-HA fluorescent signal): more and stronger fluorescent signals
[3]; versus GFP-Flag + APOE4-3xHA
  APOE4-3xHA uptake by recipient cells (anti-HA fluorescent signal): more and stronger fluorescent signals
[4]; versus APOE2-3xHA alone
  APOE2-3xHA level in recipient neuronal cells (anti-HA bands): higher levels of APOE
[4]; versus APOE3-3xHA alone
  APOE3-3xHA level in recipient neuronal cells (anti-HA bands): higher levels of APOE
[4]; versus APOE4-3xHA alone
  APOE4-3xHA level in recipient neuronal cells (anti-HA bands): higher levels of APOE

B2: HILPDA P01: synthesized mouse HILPDA polypeptide, SEQ ID NO: 2 (peptide, listed as Mus musculus)
chain: MKFMLNLYVLGIMLTLLSIFVRVMESLGGLLESPLPGSSWITRGQLANTQPPKGLPDHPSRGVQ
[1]
  uptake of human low-density lipoprotein particles (Dil signal intensity): Promote the Uptake
ES-2 cells
  APOE3-3xHA uptake by recipient cells (anti-HA fluorescent signal): Promote the Clearance

B3: HILPDA P02: synthesized rat HILPDA polypeptide, SEQ ID NO: 12 (peptide, listed as Rattus norvegicus)
chain: B2 chain with F3Y, I12V, V23L, S33N, Q45H, K53R
SD rats [5]
  low-density lipoprotein cholesterol level in plasma: significantly reduced

— patent publication US20240374682A1, “PHARMACEUTICAL USE OF HYPOXIA-INDUCIBLE LIPID DROPLET-ASSOCIATED PROTEIN OR TRUNCATED FRAGMENT THEREOF” (Westlake University, priority 2021, published 2024)
